# Results as given in the supplement of paper PMC10065799, “High-throughput profiling of sequence recognition by tyrosine kinases and SH2 domains using bacterial peptide display” (eLife, 2023).
# Molecular target: SHP2-C SH2;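 also: peptide library displayed on the E. coli surface as eCPX fusions, selected cells deep-sequenced, score is each peptide's frequency after selection divided by its frequency in the input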
# Assay: SH2 binding enrichment of the phosphorylated peptide, bacterial display (enrichment ratio); higher = better substrate or ligand; peptides without Tyr show the background
# 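For phosphorylation enrichment, bacterial display in this document: 11-residue human phosphosite peptides and single-mutation variants displayed on the E. coli surface, counted by deep sequencing, each peptide's frequency after selection divided by its frequency in the unselected input library; frequency after pTyr selection over input frequency; kinase dosed for 20-30% of maximal phosphorylation in three min.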
row,Sequence,SH2 binding enrichment
1,LTFDEYRNISQ [ANXA3_Y216],0.585
2,PEVSGYCHYAD [TG_Y234_C237Y],0.676
3,ELAVNYQEQAS [SLC9A9_Y591_I589V],0.678
4,GDPTEYFITAI [IGSF22_Y501_S503I_YF],0.467
5,QNTGDDFDLFG [PTPN11_Y62_Y62D_YF],0.442
6,RLAKTYETTLE [ALB_Y377],0.569
7,DDFDLYGGEKF [PTPN11_Y66_Y62D_YF],0.545
8,SAGSSYSISVI [PAX5_Y179_G183V],0.686
9,FLNSIYKCRDE [ROS1_Y2227_S2229C],0.667
10,ARLEFYENEKK [IRS1_Y47_YF],1.19
11,FRVAGYKTQGG [TIA1_Y383_E384K_YF],0.678
12,FCVVRYCWLRR [MPZ_Y181_Y177C],0.515
13,TDHLQYFDSNK [ARAP1_Y359_R358Q],0.94
14,AASHRYDLGGL [QPRT_Y162],0.607
15,TISPYYCQSLF [CRYAA_Y48_R49C],0.743
16,CTTIHYDFMCN [TP53_Y234_N235D_YF],2.73
17,LPEENYQVLRF [ARHGAP1_Y365],0.784

row,Sequence,SH2 binding enrichment
1,VEEDTYTMPST [PTK2_Y407_D402V],0.648
2,ACEVLYNIVFM [NCF2_Y125_A128V],0.733
3,TNFPLYLRSLE [MTM1_Y71_R69P_YF],0.976
4,VKPHRYRPGTV [H3-5_Y41],0.671
5,YGGLRYGYGGL [KRTAP20-2_Y13_V17G],1.11
6,DGYIDYAEFAK [MCFD2_Y138],0.47
7,VTAALYGRLYE [BTD_Y536],0.838
8,SHSMKYFDTAV [HLA-C_Y31_R30K],0.71
9,EKKKYYDAKIE [CASP5_Y104_T106A],0.668
10,HFVDEYDPTME [KRAS_Y32_I36M],0.448
11,KVGNEYVNKGQ [MYH7_Y410_T412N],0.706
12,RREWYYEVIIA [BACE1_Y260_V265A],0.55
13,IGEVVYQRAAM [GRIN2A_Y502_V506A],0.883
14,DLDLTYIYPNI [PTEN_Y27],0.962
15,TPGPNYRPGYN [USH2A_Y463],0.488
16,NQSVRYDSSLK [ABCC8_Y1353_L1349Q],0.609

# Molecular target: Hck (UniProt P08631)
# Sequence (P08631 whole entry, looked up): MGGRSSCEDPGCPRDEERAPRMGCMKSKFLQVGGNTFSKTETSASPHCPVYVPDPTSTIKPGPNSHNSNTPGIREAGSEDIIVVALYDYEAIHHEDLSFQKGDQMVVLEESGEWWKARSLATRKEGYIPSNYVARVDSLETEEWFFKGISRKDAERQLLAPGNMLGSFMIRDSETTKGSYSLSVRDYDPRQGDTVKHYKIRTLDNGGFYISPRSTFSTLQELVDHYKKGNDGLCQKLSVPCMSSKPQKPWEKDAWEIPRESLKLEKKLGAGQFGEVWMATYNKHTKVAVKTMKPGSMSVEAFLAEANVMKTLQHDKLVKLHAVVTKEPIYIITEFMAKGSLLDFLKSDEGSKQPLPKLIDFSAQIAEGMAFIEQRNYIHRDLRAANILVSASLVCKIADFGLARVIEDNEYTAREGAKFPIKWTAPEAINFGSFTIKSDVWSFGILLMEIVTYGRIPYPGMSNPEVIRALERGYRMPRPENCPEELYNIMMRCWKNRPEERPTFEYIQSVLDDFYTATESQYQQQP
# Assay: phosphorylation enrichment, bacterial display (enrichment ratio); higher = better substrate or ligand; peptides without Tyr show the background
row,Sequence,phosphorylation enrichment
1,LTFDEYRNISQ [ANXA3_Y216],1.08
2,PEVSGYCHYAD [TG_Y234_C237Y],0.658
3,ELAVNYQEQAS [SLC9A9_Y591_I589V],0.559
4,GDPTEYFITAI [IGSF22_Y501_S503I_YF],0.461
5,QNTGDDFDLFG [PTPN11_Y62_Y62D_YF],0.748
6,RLAKTYETTLE [ALB_Y377],0.622
7,DDFDLYGGEKF [PTPN11_Y66_Y62D_YF],3.11
8,SAGSSYSISVI [PAX5_Y179_G183V],0.539
9,FLNSIYKCRDE [ROS1_Y2227_S2229C],0.572
10,ARLEFYENEKK [IRS1_Y47_YF],0.451
11,FRVAGYKTQGG [TIA1_Y383_E384K_YF],0.401
12,FCVVRYCWLRR [MPZ_Y181_Y177C],0.577
13,TDHLQYFDSNK [ARAP1_Y359_R358Q],0.697
14,AASHRYDLGGL [QPRT_Y162],0.35
15,TISPYYCQSLF [CRYAA_Y48_R49C],0.79
16,CTTIHYDFMCN [TP53_Y234_N235D_YF],0.656
17,LPEENYQVLRF [ARHGAP1_Y365],2.82

row,Sequence,phosphorylation enrichment
1,VEEDTYTMPST [PTK2_Y407_D402V],3.5
2,ACEVLYNIVFM [NCF2_Y125_A128V],2.95
3,TNFPLYLRSLE [MTM1_Y71_R69P_YF],0.505
4,VKPHRYRPGTV [H3-5_Y41],0.328
5,YGGLRYGYGGL [KRTAP20-2_Y13_V17G],1.42
6,DGYIDYAEFAK [MCFD2_Y138],0.657
7,VTAALYGRLYE [BTD_Y536],5.15
8,SHSMKYFDTAV [HLA-C_Y31_R30K],0.392
9,EKKKYYDAKIE [CASP5_Y104_T106A],0.449
10,HFVDEYDPTME [KRAS_Y32_I36M],0.702
11,KVGNEYVNKGQ [MYH7_Y410_T412N],0.327
12,RREWYYEVIIA [BACE1_Y260_V265A],0.513
13,IGEVVYQRAAM [GRIN2A_Y502_V506A],1.66
14,DLDLTYIYPNI [PTEN_Y27],1.37
15,TPGPNYRPGYN [USH2A_Y463],0.346
16,NQSVRYDSSLK [ABCC8_Y1353_L1349Q],0.429
